Measured values as given in PMC9509318 (2022).

T1: Pfs48/45 full-length ectodomain (Plasmodium falciparum, UniProt Q8I6T1 27-427)
T1 chain: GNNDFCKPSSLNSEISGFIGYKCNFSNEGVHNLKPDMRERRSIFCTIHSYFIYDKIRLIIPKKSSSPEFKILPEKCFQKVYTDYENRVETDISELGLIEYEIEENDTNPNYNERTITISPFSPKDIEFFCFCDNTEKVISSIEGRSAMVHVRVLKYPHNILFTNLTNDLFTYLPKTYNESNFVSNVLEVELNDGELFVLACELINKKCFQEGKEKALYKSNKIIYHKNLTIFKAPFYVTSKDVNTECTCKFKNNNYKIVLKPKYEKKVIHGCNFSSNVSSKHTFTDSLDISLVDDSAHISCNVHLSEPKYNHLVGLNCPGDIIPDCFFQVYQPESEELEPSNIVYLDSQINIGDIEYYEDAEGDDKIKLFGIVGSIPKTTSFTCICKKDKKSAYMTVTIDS


Experiments:
[1] = target: T1, Pfs48/45 full-length ectodomain; assay: SPR
[2] = target: T1, Pfs48/45 full-length ectodomain; assay: SPR

Row | Binder | Kd [1] [nM] | koff [2] [s⁻¹]
1 | 32F3 monoclonal antibody (antibody, V domains shown) VH: DVKLVESGGGLVKLGGSLKLSCAASGFTFSSYYMSWVRQTPEKRLELVAAINNNGGSTYYPDTVKGRFTISRDNAKNTLNLQMNSLKSEDTALYYCTRQHYGNLYFFDYWGQGTTLTVSS VL: QIVLSQSPAILSASPGEKVTMTCRASSSVTYIHWYQQKPGSSPKPWIQATSSLASGVPARFSGSGSGTSYSLSISRVEAEDAATYYCQQWSSNPLTFGAGTKLELK | 4.1 | 0.000121
2 | 85RF45.1 monoclonal antibody (antibody, V domains shown) VH: EVQLVESGGGLLQPGRSLKLSCVASGFTFNNYWMSWIRQAPGKGLEWIASISNIGGTIYYPDSVKGRFTISRDSAQNTLYLQMNSLRSEDTATYYCTRDLRMSDYFDYWGQGVMVTVSS VL: QFVLSQPNSVSTNLGSTVKLSCKRSTGNIGSNYVSWYQHHEGRSPTTMIYRDDQRPDGVPDRFSGSIDRSSNSALLTIDNVQTEDEAAYFCHSYSTGMYIFGGGTKLTVL | 1.34 | –
3 | 10D8 monoclonal antibody (antibody, V domains shown) VH: EVMLVESGGDLVKPGGSLKVSCAASGFTFSNYAMSWVRQTPEKRLEWVATISSGASYTHYPDSVKGRFTISRDNAKNTLYLQMSSLRSEDTAMYYCGRQVNRHDRALDAMDYWGQGTSVTVSP VL: not shown | 35.8 | 0.0027
